One block for each molecule: values may come before it.
Key:
[1] = molecular target: T1, SASPase_28 (Homo sapiens, UniProt Q53RT3); assay: SASPase proteolytic activity assay with Dabcyl-QIDRIMEK-Edans substrate; assay type: biochemical; conditions: for ability to increase the catalytic activity of SASPase: same enzymatic assay, FLG2-Hs replaced with the synthesized peptide
T1 construct: made in house
T1 sequence (Q53RT3 85-343): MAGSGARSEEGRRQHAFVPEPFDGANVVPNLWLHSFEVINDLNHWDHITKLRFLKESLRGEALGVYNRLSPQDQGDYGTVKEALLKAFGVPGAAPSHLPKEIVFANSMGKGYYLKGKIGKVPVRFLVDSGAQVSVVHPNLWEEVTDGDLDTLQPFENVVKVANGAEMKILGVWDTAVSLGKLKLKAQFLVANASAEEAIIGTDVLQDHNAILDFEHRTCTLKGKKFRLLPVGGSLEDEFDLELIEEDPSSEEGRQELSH
Method: A recombinant 28 kDa SASPase (SASPase_28) constituted of the amino acids extending from positions 85 to 343 of the sequence represented by the reference Q53RT3 (Uniprot/Swissprot Ref.) was prepared as described by Bernard et al., (J. Invest. Dermatol., 2005, 125: 278-287).
SASPase_28 at 0.025 mg/ml is in the presence of a colorimetric substrate, Dabcyl-QIDRIMEK-Edans, at 0.01 mM (Production Jerini Peptide Ref. D17: JPT Peptide Technologies GmbH) in a PBS buffer.
The hydrolysis of the colorimetric substrate by the activated SASPase results in the separation of the EDANS fluorochrome and of its deactivator (or quencher) Dabcyl, and in an increase in the EDANS fluorescence.
The fluorescent signal is measured at λex 340 nm/λem 490 nm. The fluorescence is read every 10 minutes for 1 h 30 min, at 37° C., with a SPECTRAMAX M5e (Molecular Devices).
The previous enzymatic assay was repeated with FLG2-Hs being replaced with each of the peptides thus prepared.

[2] = molecular target: T2, filaggrin-2 (FLG2) (Homo sapiens, UniProt Q5D862); assay: double-hybrid interaction of SASPase_28 fragments with filaggrin-2; assay type: binding; conditions: N-terminal fragment of SASPase_28, amino acids 11-86
T2 construct: expressed in transfected cells; host or cells: double-hybrid system
T2 sequence (Q5D862 2-213): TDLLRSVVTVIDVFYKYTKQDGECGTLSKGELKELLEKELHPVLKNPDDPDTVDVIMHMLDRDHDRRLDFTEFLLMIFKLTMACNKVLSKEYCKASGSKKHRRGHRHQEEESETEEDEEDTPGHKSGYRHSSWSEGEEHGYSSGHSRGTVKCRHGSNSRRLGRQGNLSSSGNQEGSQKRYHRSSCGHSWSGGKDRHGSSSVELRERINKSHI
Method: A first study using the “double-hybrid” technique was carried out using the whole 28 kDa SASPase protein in its wild-type form (SASPase_28, GENBANK Ref. gi16553767) and in its form mutated at the catalytic aspartic acid (SASPase_28D128A), and also the 37 kDa SASPase form (SASPase_37), in its whole form (GENBANK Ref. gi189409121), and a fragment corresponding to the N-terminal end of 84 amino acids of the protein relative to the sequence of SASPase_28 ([…]).
The SASPase sequences were fused to a DNA-binding domain, LexA, according to the orientation N-LexA-SASPase-C, so as to keep the C-terminal end of the SASPase free, with the exception of the SASPase_28N84 sequence which is fused to the LexA domain according to the orientation N-SASPase_28N84-LexA-C.
(§1) The prey sequences were fused to the Ga14 transcription-activating domain.
(§2) Supplementary experiments were carried out in order to reduce and identify the size of the sequences responsible for this interaction between SASPase_28 and filaggrin-2.

[3] = molecular target: T3, SASPase (Homo sapiens, UniProt Q53RT3); assay: double-hybrid interaction of filaggrin-2 fragments with SASPase; assay type: binding; conditions: N-terminal S100 domain of filaggrin-2, amino acids 2-95
T3 construct: expressed in transfected cells; host or cells: double-hybrid system
T3 sequence (Q53RT3 1-259 isoform Q53RT3-2): T1 sequence (Q53RT3 85-343)
Method: The interaction with a SASPase was found using, as bait, the filaggrin-2 fragment identified as interacting with the SASPase_28 and SASPase_37 sequences, and corresponding to amino acids 2-213 of the Genbank sequence: gi:62122916.
The sequence was fused to the DNA-binding domain, LexA, according to the orientation N-LexA-FLG22-213-C.
as §1, §2

Molecule: SEQ ID NO: 10: peptide of 8 to 20 amino acids synthesized from positions 71 to 90 of FLG2, SEQ ID NO: 9 (FTEFLLMIFKLTMACNKVLS; /mol_type=“protein” /organism=“Homo sapiens”; listed as Homo sapiens)
- ability to increase the catalytic activity of SASPase [1]: particularly significant ability to increase

Molecule: SEQ ID NO: 11: peptide of 8 to 20 amino acids synthesized from positions 71 to 90 of FLG2, SEQ ID NO: 9 (EFLLMIFKLTMACNK; /mol_type=“protein” /organism=“Homo sapiens”; listed as Homo sapiens)
- ability to increase the catalytic activity of SASPase [1]: particularly significant ability to increase

Molecule: SEQ ID NO: 12: peptide of 8 to 20 amino acids synthesized from positions 71 to 90 of FLG2, SEQ ID NO: 9 (LMIFKLTMACNKVLS; /mol_type=“protein” /organism=“Homo sapiens”; listed as Homo sapiens)
- ability to increase the catalytic activity of SASPase [1]: particularly significant ability to increase

Molecule: SEQ ID NO: 13: peptide of 8 to 20 amino acids synthesized from positions 71 to 90 of FLG2, SEQ ID NO: 9 (LMIFKLTMACNKV; /mol_type=“protein” /organism=“Homo sapiens”; listed as Homo sapiens)
- ability to increase the catalytic activity of SASPase [1]: particularly significant ability to increase

Molecule: SEQ ID NO: 14: peptide of 8 to 20 amino acids synthesized from positions 71 to 90 of FLG2, SEQ ID NO: 9 (TEFLLMIFKLTMACNK; /mol_type=“protein” /organism=“Homo sapiens”; listed as Homo sapiens)
- ability to increase the catalytic activity of SASPase [1]: particularly significant ability to increase

Molecule: SEQ ID NO: 15: peptide of 8 to 20 amino acids synthesized from positions 71 to 90 of FLG2, SEQ ID NO: 9 (TEFLLMIF; /mol_type=“protein” /organism=“Homo sapiens”; listed as Homo sapiens)
- ability to increase the catalytic activity of SASPase [1]: particularly significant ability to increase

- interaction with FLG2 [2]: sufficient for the interaction with FLG2
B1: SEQ ID NO: 16: amino acid sequence extending from positions 97 to 173 of the Q53RT3 sequence of SASPase (protein, listed as Homo sapiens)
chain: RQHAFVPEPFDGANVVPNLWLHSFEVINDLNHWDHITKLRFLKESLRGEALGVYNRLSPQDQGDYGTVKEALLKAFG
modifications: /mol_type=“protein” /organism=“Homo sapiens”

B2: FLG2-Hs: recombinant filaggrin-2, positions 2 to 213 of Q5D862, fused to a Thioredoxin-His-S.Tag affinity label (protein)
chain: T2 sequence (Q5D862 2-213)
modifications: left off: large carriers
- enzymatic activity of SASPase ([1]; SASPase_28 0.025 mg/ml, substrate 0.01 mM, PBS, 37° C., FLG2-Hs at 0.01 to 10 times the SASPase concentration): significantly increased

- interaction with SASPase [3]: involved in the interaction with SASPase
B3: SEQ ID NO: 9: amino acid sequence extending from positions 2 to 95 of filaggrin-2 Q5D862 (N-terminal S100 domain) (protein, listed as Homo sapiens)
chain: TDLLRSVVTVIDVFYKYTKQDGECGTLSKGELKELLEKELHPVLKNPDDPDTVDVIMHMLDRDHDRRLDFTEFLLMIFKLTMACNKVLSKEYCKA
modifications: /mol_type=“protein” /organism=“Homo sapiens”

From US9290553B2, “Peptides that modulate complex SASPase-FLG2” (L'OREAL, priority 2010, dated 2016)
